Consider 1 molecule from patent US10052364B2, “Osteocalcin as a treatment for cognitive disorders” (THE TRUSTEES OF COLUMBIA UNIVERSITY IN THE CITY OF NEW YORK, priority 2013, dated 2018).

For test [1], the system named is mouse primary hindbrain neurons (MPHN). Briefly: Gene expression in cultured mouse primary hindbrain neurons. The format is cell-based. The following applies: osteocalcin 3 ng/ml, 2 or 4 hours, WT and Gprc6a-/-. Here is the method:
For gene expression studies, RNA was isolated from primary neurons or tissue using TRIZOL® (Invitrogen). cDNA synthesis was performed following a standard protocol from Invitrogen and qPCR analyses were done using specific quantitative PCR primers from SABiosciences (www.sabiosciences.com/RT2PCR.php).
For primary culture of hindbrain neurons, E14.5 embryos were obtained from matings of 129-Sv WT mice. Hindbrains were dissected out and collected in ice-cold filter sterilized HBSS buffered with 10 mM HEPES until dissection was complete, at which point they were finely chopped into 2 mm cubes, dissociated by trituration with a fire-polished Pasteur pipette and spun down at 4° C. Cells were then plated onto poly-D-lysine coated coverslips or dishes in Neurobasal medium supplemented with 2% B27, 0.25 mM Glutamax, 0.25 mM L-glutamine, penicillin G (50 U/ml), and streptomycin sulphate ([…]). Cultures were fed every 3-6 days with one half replacement medium without L-glutamine.
To determine if osteocalcin acts directly on neurons to modulate neurotransmitter synthesis, several types of assays were performed. First, brainstem and midbrain explants from WT and Gprc6a^−/− mice were generated. […] Third, to further confirm that osteocalcin signals in neurons of the hindbrain, calcium flux in MPHN treated with undercarboxylated or carboxylated osteocalcin (FIG. 3F) was measured. […]

Test [2] concerns neurons in the brain (WT brain sections). Briefly: Binding of biotinylated osteocalcin to brain sections (anti-biotin immunofluorescence, competition). The arrangement: species or system mouse. Here is the method: FIG. 3. Osteocalcin binds to neurons in the brain. (A) Measurement of the total osteocalcin in 3 month-old Osteocalcin^−/− mice infused subcutaneously for 7 days with either uncarboxylated osteocalcin (300 ng/hour, right panel) or PBS (left panel). Osteocalcin levels were measured in bone, serum, and different parts of the brain (cortex, midbrain, hypothalamus, brainstem, and cerebellum). (B) Subcutaneous infusion of leptin ([…], right panel) or PBS (left panel) for 7 days in ob/ob mice. Leptin levels were measured in serum, cortex, midbrain, hypothalamus, brainstem, and cerebellum. (C) Binding of GST-biotin (30 μg/ml) (panel 1) and biotinylated osteocalcin (300 ng/ml) (panels 2-4) to the dorsal (DR) and median (MR) raphe nuclei of the brainstem (identified by anti-5-HT immunofluorescence), to the ventral tegmental area (VTA) of the midbrain (identified by anti-TH immunofluorescence), and to the CA3 and CA4 of the hippocampus (identified anatomically). […] Binding with GST-biotin, osteocalcin-biotinylated, and competition assays were performed on adjacent sections. (D) Expression of Tph2 and GAD 1 in brainstem, and Th in midbrain explants from WT and Gprc6a^−/− mice, treated with 10 ng/ml osteocalcin or vehicle. (E) Gene expression in WT primary hindbrain neuron cultures treated with 10 ng/ml osteocalcin or vehicle. (F) Calcium flux response of primary hindbrain cultured neurons to osteocalcin treatment. (G-H) Extracellular current recordings of (G) neurons of the dorsal raphe nucleus and (H) GABAergic interneurons of the brainstem treated with osteocalcin (10 ng/ml).
Brains from 8-week-old mice were snap-frozen in isopentane, and […] thick sections were prepared and desiccated overnight at 4° C. under vacuum. On the following day, sections were rehydrated in ice-cold binding buffer (50 mM TrisHCl [pH 7.4], 10 mM MgCl2, 0.1 mM EDTA and 0.1% BSA) for 15 min and incubated for 1 hr in the presence of biotinylated osteocalcin (3, 30, 300, 3000 ng/ml) or biotynylated recombinant GST as a control ([…]). After washing in harvesting buffer (50 mM Tris-HCl, pH 7.4), samples were fixed in 4% paraformaldehyde for 15 min, washed in PBS and incubated with goat anti-biotin antibody (1:1000, Vector laboratories) over night at 4° C. Signal was visualized by incubating with anti-goat IgG Cy-3 using Leica DM 5000B microscope (Leica). The binding assays were perform on adjacent sections for each conditions tested.
This accumulation in discrete regions of the brain raised the question of whether osteocalcin binds to specific neurons in the brain. This was tested by incubating sections of adult or embryonic (E18.5) WT brains with biotinylated undercarboxylated osteocalcin or GST-biotin alone (30 μg/ml), followed by immunofluorescence analysis using an anti-biotin antibody. […]

Another test has as its system aged WT mice. The test can be described thus: ICV infusion in aged WT mice, Novel Object Recognition test. The format is in vivo, mouse. The following applies: ICV 10 ng/hr for one month, 16 month old WT mice. Here is the method: FIG. 9. Osteocalcin improves hippocampal function in aged wild-type (WT) mice. Constant and novel object investigation in the Novel Object Recognition test in 17 month old mice treated for 1 month with vehicle or 10 ng/hr recombinant uncarboxylated osteocalcin.
ICV pumps delivering (10 ng/hr) recombinant uncarboxylated full-length mouse osteocalcin were implanted in 16 month old WT mice. After an infusion period of one month, the mice were subjected to a modified version of the Novel Object Recognition test, to assay memory and hippocampal function. Briefly, mice were given five 5 minute exposures, with 3 minute resting intervals between exposures, to a novel arena containing two objects. During exposures 1-4, mice were habituated to these two objects, which elicited equal amounts of exploration. In the fifth exposure, one of the objects was replaced with a novel object.

The mark [3] stands for this setting: biotinylated undercarboxylated osteocalcin, WT brain sections.

B1: uncarboxylated osteocalcin: Recombinant osteocalcin bacterially produced, cleaved from the GST subunit; completely undercarboxylated at all three sites (protein, listed as Homo sapiens)
chain: MRALTLLALLALAALCIAGQAGAKPSGAESSKGAAFVSKQEGSEVVKRPRRYLYQWLGAPVPYPDPLEPRREVCELNPDCDELADHIGFQEAYRRFYGPV
modifications: uncarboxylated
notes: Recombinant osteocalcin bacterially produced, cleaved from the GST subunit; completely undercarboxylated at all three sites
On to B1, for which, in test [1], the “GA' expression decrease in primary brainstem neuronal culture” value is 65% and the “Tph2 expression in primary brainstem neuronal culture” value was “increased more than three-fold”. Besides, in test [2] (setting [3]), the “binding in the brainstem” value is recorded as “bound to neurons of the raphe nuclei”; the “binding in the midbrain” value was “bound to the ventral tegmental area and the substantia nigrae”. For the same molecule, in test [2] (biotinylated undercarboxylated osteocalcin, adult or E18.5 WT brain sections), the “binding to neuronal populations of the brain” value was “bound to several neuronal populations in the forebrain, midbrain, and brainstem”. The “specificity of binding in the midbrain and brainstem (competition)” value in test [2] (excess of unlabeled osteocalcin versus excess of GST) is reported as “specific”. Moreover, in the test on aged WT mice, the “discrimination between novel and constant objects” value is “able to discriminate between the novel and constant objects”.
